Data on 38 molecules can be found in publication PMC314469, “Protein Interaction Networks by Proteome Peptide Scanning” (PLoS Biology, 2004).

Test [1] deals with T1, amphyphisin SH3 (AMPH_HUMAN), P49418.
T1 chain: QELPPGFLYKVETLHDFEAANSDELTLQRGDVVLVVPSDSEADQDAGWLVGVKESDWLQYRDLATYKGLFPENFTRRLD
Put plainly: SPOT array.

Test [2] deals with endophilin SH3 (SH3G2_HUMAN), Q99962. Description: SPOT array.

As for PFRALKRPLQFLGL [O00156 318-331], the normalised SPOT signal, Boehringer light units (BLU); mean over the file's lines of this peptide was 28.1 in test [1] and 63.7 in test [2].

In the case of PEYRPKRPANQFVP [P13862 172-185], the normalised SPOT signal, Boehringer light units (BLU); mean over the file's lines of this peptide was found to be 24.8 in test [1] and 238 in test [2].

Take PSYHILRPSRNQDL [Q9BR43 91-104]: the normalised SPOT signal, Boehringer light units (BLU); mean over the file's lines of this peptide in test [1] was 412; in test [2], 426.

With PSPAPPRPARVPAH [Q13078 876-889], the results for the normalised SPOT signal, Boehringer light units (BLU); mean over the file's lines of this peptide in test [1] and in test [2] were 2020 and 3100, respectively.

For the molecule PAVILRRPNQSQPL [Q92542 409-422], the normalised SPOT signal, Boehringer light units (BLU); mean over the file's lines of this peptide in test [1] amounted to 16.5; in test [2], 108.

Consider PSLTPRRPSSTRAR [Q16623 232-245], for which the normalised SPOT signal, Boehringer light units (BLU); mean over the file's lines of this peptide worked out at 869 in test [1] and 1390 in test [2].

Regarding PDVWLRRPSTHTSG [Q9C0C1 1172-1185], the normalised SPOT signal, Boehringer light units (BLU); mean over the file's lines of this peptide in test [1] was 60.1; in test [2], 242.

Turning to PDPGFLRPQRAALY [Q9UGB8 1078-1091], the results for the normalised SPOT signal, Boehringer light units (BLU); mean over the file's lines of this peptide in test [1] and in test [2] were 986 and 310, respectively.

Take PESEIERPERLTAA [Q9UGX2 21-34]: the normalised SPOT signal, Boehringer light units (BLU); mean over the file's lines of this peptide in test [1] was found to be 124; in test [2], 281.

PDHRPPRPPQPPPP [P51511 326-340]: the normalised SPOT signal, Boehringer light units (BLU); mean over the file's lines of this peptide in test [1] was found to be 548; in test [2], 1370.

With PSTLPRRPPVPSGQ [Q9Y215 243-257], the normalised SPOT signal, Boehringer light units (BLU); mean over the file's lines of this peptide in test [1] turned out to be 309; in test [2], 2140.

With AARGLRRPEDSSRK [Q9H5N7 170-183], the normalised SPOT signal, Boehringer light units (BLU); mean over the file's lines of this peptide turned out to be 18 in test [1] and 3.6 in test [2].

With PFGQLKRPRRNGLG [Q9NUE2 170-183], the normalised SPOT signal, Boehringer light units (BLU); mean over the file's lines of this peptide stood at 510 in test [1] and 67.8 in test [2].

Consider PSAKPRRPQDKSQG [Q9P2D1 825-838], for which the values for the normalised SPOT signal, Boehringer light units (BLU); mean over the file's lines of this peptide in test [1] and in test [2] were 38.3 and 78.4, respectively.

Turning to PATAPARPLRLPSG [Q9UPV8 1233-1246], the normalised SPOT signal, Boehringer light units (BLU); mean over the file's lines of this peptide in test [1] stood at 11300; in test [2], 7710.

Regarding PEAVPGKPPFAEPD [Q9BYN7 703-717], the normalised SPOT signal, Boehringer light units (BLU); mean over the file's lines of this peptide in test [1] amounted to 71.4; in test [2] it was 63.8.

On to PDPAIRRPAEKFLE [P55060 21-34], for which the figures for the normalised SPOT signal, Boehringer light units (BLU); mean over the file's lines of this peptide in test [1] and in test [2] were 35.9 and 52.2, respectively.

On to PFHSLKRPRPPFAR [O75048 874-887], for which the normalised SPOT signal, Boehringer light units (BLU); mean over the file's lines of this peptide is 65.6 in test [1] and 228 in test [2].

For the molecule PSSRPRRPAVYTSV [Q9UKQ9 224-237], the normalised SPOT signal, Boehringer light units (BLU); mean over the file's lines of this peptide in test [1] was determined as 39.7; in test [2], 260.

PDQGPQRPPPEGLL [Q16378 41-55]: the normalised SPOT signal, Boehringer light units (BLU); mean over the file's lines of this peptide was 24.4 in test [1] and 62.3 in test [2].

ARRGPGRPRKRKHS [Q9P281 735-748]: the values for the normalised SPOT signal, Boehringer light units (BLU); mean over the file's lines of this peptide in test [1] and in test [2] were 121 and 231, respectively.

In the case of PFFAPKRPFFPPRY [O75048 890-903], the normalised SPOT signal, Boehringer light units (BLU); mean over the file's lines of this peptide stood at 215 in test [1] and 3080 in test [2].

Turning to PSKEILRPRRTLQK [P01031 668-681], the normalised SPOT signal, Boehringer light units (BLU); mean over the file's lines of this peptide was found to be 1040 in test [1] and 181 in test [2].

For PEIFLKRPVVEGNR [Q13393 385-398], the normalised SPOT signal, Boehringer light units (BLU); mean over the file's lines of this peptide is 32.1 in test [1] and 95.5 in test [2].

Turning to PAVPPARPPTAQEV [Q9ULT2 697-711], the figures for the normalised SPOT signal, Boehringer light units (BLU); mean over the file's lines of this peptide in test [1] and in test [2] were 92 and 509, respectively.

As for PEVGPWRPKRLSGV [Q9NPU4 88-101], the normalised SPOT signal, Boehringer light units (BLU); mean over the file's lines of this peptide in test [1] worked out at 4730; in test [2] it was 2400.

For PEVYLKRPAHSDDW [O14939 368-381], the normalised SPOT signal, Boehringer light units (BLU); mean over the file's lines of this peptide in test [1] turned out to be 33; in test [2], 28.5.

As for ARRLLVRPARLRRH [Q9UIC6 53-66], the values for the normalised SPOT signal, Boehringer light units (BLU); mean over the file's lines of this peptide in test [1] and in test [2] were 1340 and 67.4, respectively.

On to ARRPLARPIKPNEI [O94825 179-192], for which the normalised SPOT signal, Boehringer light units (BLU); mean over the file's lines of this peptide in test [1] came out at 92.1; in test [2], 136.

For ARPELRRPGVQGIP [Q9Y358 352-365], the normalised SPOT signal, Boehringer light units (BLU); mean over the file's lines of this peptide was 25.7 in test [1] and 73.8 in test [2].

Consider PEPELSRPIRHHPD [Q01459 44-57], for which the normalised SPOT signal, Boehringer light units (BLU); mean over the file's lines of this peptide was found to be 98.6 in test [1] and 116 in test [2].

With PDIPPPRPPKPHPA [Q13480 337-351], the normalised SPOT signal, Boehringer light units (BLU); mean over the file's lines of this peptide in test [1] came out at 635; in test [2], 6240.

For PEVQLRRPNWSKLV [O60610 754-767], the normalised SPOT signal, Boehringer light units (BLU); mean over the file's lines of this peptide in test [1] worked out at 35.6; in test [2] it was 152.

In the case of PEDAPKRPKEAAPD [Q9NUE8 153-166], the normalised SPOT signal, Boehringer light units (BLU); mean over the file's lines of this peptide in test [1] turned out to be 19.3; in test [2] it was 23.2.

PDETLRRPGGPQYG [Q14289 406-419]: the normalised SPOT signal, Boehringer light units (BLU); mean over the file's lines of this peptide stood at 24.5 in test [1] and 12.2 in test [2].

For the molecule PASALPRPPRLSGS [Q9NQ45 25-38], the normalised SPOT signal, Boehringer light units (BLU); mean over the file's lines of this peptide is 4470 in test [1] and 92.9 in test [2].

On to PAVPPGRPRRGSLP [Q9UQ51 6-19], for which the normalised SPOT signal, Boehringer light units (BLU); mean over the file's lines of this peptide was 2070 in test [1] and 7480 in test [2].

In the case of PERLLLRPARIRAD [Q9BXY2 295-308], the normalised SPOT signal, Boehringer light units (BLU); mean over the file's lines of this peptide in test [1] was found to be 1020; in test [2], 106.
